The values that follow come from paper PMC11849304 (Virology Journal, 2025).

The target of the assay is soluble WT SARS-CoV-2 spike trimer protein (SARS-CoV-2, wild-type (NC_045512), UniProt P0DTC2). As to the kind of experiment: ELISA. A general note: In an ELISA, binding on a coated surface is turned into a signal by an enzyme label.

B1: 8D2 (antibody, V domains shown)
VH: EVQLVESGGGLVQPGGSLRLSCAASGFTFSSYWMSWVRQAPGKGLEWVANINQDGSEKYYVDSVKGRFTISRDNAKNSLYLQVNSLRAEDTAVYYCARDWDYDILTGSWFGAFDIWGQGTTVTVSS
VL: DIQMTQSPSSLSASVGDRVTITCRASQGIRNDLGWYQQKPGKAPKRLIYAASSLQSGVPSRFSGSGSGTEFTLTISSLQPEDFATYYCLQHNSYPLTFGGGTKVEIK
For B1, the binding result is “binds”.

B2: COV2-2490 (antibody, V domains shown)
VH: EVQLVESGGGLVQPGGSLRLSCAASGFTFSSYWMNWVRQAPGKGLEWVANINQDGGEKYYVDSVRGRFTISRDNAKNSLYLQMNSLRAEDTAVYYCARDPYDLYGDYGGTFDYWGQGTLVTVSS
VL: not shown
Take B2: the binding result is recorded as “binds”.
